These results are taken from article PMC5512444 (Structure (London, England : 1993), 2017).

For experiment [1], the target named is Ube2g2 (Homo sapiens) (UniProt P60604). The settings on record: cited from earlier work.
Experiment [2] has the same target. The settings on record: cited from earlier work. This is another data set of the same source.
Experiment [3] shares this target. The settings on record: cited from earlier work. This is another data set of the same source.
Experiment [4] shares this target. To be noted: cited from earlier work. The source holds these as a separate data set.
The next experiment concerns the target T1, Y103G-Ube2g2 (human, UniProt P60604 1-165, Y103G).
T1 sequence: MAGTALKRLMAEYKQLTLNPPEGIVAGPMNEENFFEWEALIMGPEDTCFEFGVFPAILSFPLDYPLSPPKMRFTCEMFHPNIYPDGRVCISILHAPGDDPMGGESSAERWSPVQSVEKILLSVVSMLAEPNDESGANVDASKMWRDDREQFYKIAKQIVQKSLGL
Kind of experiment: ITC. On the technique in general: ITC needs no label: the signal is the heat of the interaction.

The target of another experiment is T2, Ube2g2 (wild type) (human, UniProt P60604 1-165).
T2 sequence: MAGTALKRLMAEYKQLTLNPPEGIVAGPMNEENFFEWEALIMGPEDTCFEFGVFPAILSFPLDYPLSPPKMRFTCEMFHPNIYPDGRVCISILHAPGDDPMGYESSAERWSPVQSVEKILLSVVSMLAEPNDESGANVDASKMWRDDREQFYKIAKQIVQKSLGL
Briefly: NMR 15N heteronuclear NOE of the complex compared with the free protein.

The target of the next experiment is T3, C89K-Ube2g2 (human, UniProt P60604 1-165, C89K).
T3 sequence: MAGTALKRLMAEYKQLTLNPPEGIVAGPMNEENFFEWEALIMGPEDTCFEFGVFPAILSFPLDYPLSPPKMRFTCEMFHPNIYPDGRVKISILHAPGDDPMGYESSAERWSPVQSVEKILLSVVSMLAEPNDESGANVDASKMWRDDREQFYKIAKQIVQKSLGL
Briefly: NMR 15N CPMG relaxation dispersion of the complex compared with the free protein.

Like-named read-outs stand apart in the source and are kept apart here.

One may read the Kd as the concentration at which binding is half-saturated. A word on the stoichiometry N: it is the number of molecules, sites or subunits per partner or assembly.

As to gp78 RING (from UniProt Q9UKV5), the Kd was 144000 nM in the experiment with Ube2g2 (Homo sapiens) [1] and 3000 nM with Ube2g2 (Homo sapiens) [2]. Take gp78 G2BR (from UniProt Q9UKV5): in the experiment with Ube2g2 (Homo sapiens) [3], the Kd was 21 nM. For gp78 RING-G2BR (from UniProt Q9UKV5), the Kd with Ube2g2 (Homo sapiens) [4] is 38 nM.

Take WSADERQRMLVQRKDELLQQARKRFLNK [G2BR peptide of gp78 (Ube2g2 binding region)]: in the experiment with Y103G-Ube2g2, the Kd was determined as 59 ± 6 nM, the dH is -39.5 ± 0.4 kcal/mol and the “stoichiometry N” value worked out at 0.95. Moreover, the binding result with Ube2g2 (wild type) is “binds”.

B1: RING-G2BR fusion protein of gp78 (domain or fragment, human)
chain: KNYLRVVGNMEARFAVATPEELAVNNDDCAICWDSMQAARKLPCGHLFHNSCLRSWLEQDTSCPTCRMSLNIADNNRVREEGGGGGGGSSGSSGGSGGGSGSSSGGGGGSGGGSGGGGGGGADERQRMLVQRKDELLQQARKRFLNK
With B1, the binding result with C89K-Ube2g2 was “binds”.
